Assay results: the supplement of paper PMC9170038

Tested on: MS2 coat protein
Assay: apparent KD of MS2 coat protein; designed switch direction (-1 OFF switch, 1 ON switch): -1; higher = weaker reporter binding
How it was run: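 Designed RNA switches with common flanks were made on Illumina chips by stalled E. coli RNA polymerase. Titration with SNAP-549-labelled MS2 coat protein doubled from 0.7 or 1.5 nM up to 3 µM. Apparent KD is each design's median over clusters after curve-fitting normalised fluorescence.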

[1] = input ligand: microRNA oligo, concentration not stated
[2] = Eterna round: R95, input ligand: microRNA oligo, concentration not stated
[3] = Eterna round: R95, input ligand: FMN 200 uM
[4] = Eterna round: R95, input ligand: none

Row | Sequence | apparent KD of MS2 coat protein (input ligand: FMN 200 uM) [nM] | apparent KD of MS2 coat protein [1] [nM] | apparent KD of MS2 coat protein (input ligand: none) [nM] | apparent KD of MS2 coat protein [2] [nM] | apparent KD of MS2 coat protein [3] [nM] | apparent KD of MS2 coat protein [4] [nM]
1 | CUGAAAGACGAAGGAUAUCCAGGCGCCGGCGUAGGAGAAGGUCGUCCGGGUGUCCUAGAACUUGAGGAUCACCCAAGUAGAAGA [Mutated MS2 EX1.14] (Eterna round: R96, puzzle: Exclusion NG 1) | 36.8 | 24.9 | 53.1 |  |  | 
2 | CUGAACCCGGUAGGAUAUAUUGUGGGCGGGCGUGGAACGACAUGAGGAUCACCCAUGUAAUUGAGGUAGAAGGGCCGAGAGGUU [Excl-NG2-LRO16] (Eterna round: R96, puzzle: Exclusion NG 2) | 38.5 | 30.4 | 43.8 |  |  | 
3 | CUGAGCUGAGGAUAUACAUGAGGAUCACCCAUGUAAAGUAGCUUGCGUACAGGCAGAUGUAGAAGGCAGUUCGG [Mod of JL 2 - Jieux - Exclusion 3] (Eterna round: R97, puzzle: Exclusion 3) | 34.7 |  | 20.5 |  |  | 
4 | CUGAGCUGAGGAUAUACAUGAGGAUCACCCAUGUGUUCGAGCUUGCGUACAGGCAGAUGUAGAAGGCAGUUCGG [JL-ex3-3.34 Brourd mod] (puzzle: Exclusion 3) |  |  |  | 23.8 |  | 
5 | CUGAGGUAGCGGUCCUAUGACAUGAGGAUCACCCAUGUACCUUGCUUUGAGCAAUUUGCUCGUCUUAUGAUUCUCGG [Mat - Sensor v3 - turn-off var 1 - JL Mod - D46] (puzzle: Sensor v3, turn-off variant 1) |  |  |  | 468 | 446 | 533
6 | CUGAGGUAGCGGUCCUAUGACAUGAGGAUCACCCAUGUACCUUGCUUUGAGCUUUUUGCUCGUCUUAUGAUUCUCGG [JL Atriat mod 6] (puzzle: Sensor v3, turn-off variant 1) |  |  |  | 283 | 472 | 462
7 | CUGAGGUAGCGGUCCUAUGACAUGAGGAUCACCCAUGUGCCUUGCUACAAGCUUUUUGCUCGUCUUAUGAUUCUCGG [JL Atriat mod 9] (puzzle: Sensor v3, turn-off variant 1) |  |  |  | 107 | 47.8 | 51.9
8 | CUGAUGUGAGGAUAUGUGAUCUGCCUUCUAUGUAGAUGAUCACAGAAGGCACAUGAGGAUCACCCAUGUAGAUC [Ex4 - 3 - 26] (Eterna round: R96, puzzle: Exclusion 4) | 129 | 57.3 | 99.4 |  |  | 
9 | CUGAUGUGAGGAUAUGUGAUCUGCCUUCUAUGUAGAUGAUCACAGAAGGCACAUGAGGAUCACCCAUGUAGAUC [Ex4 - 3 - 26] (puzzle: Exclusion 4) |  |  |  | 69.7 |  | 
10 | CUGCUCCGUGUAGGAUAUGCAUACUCCCAUUAUGCAGAAGGACAUGAGGAUCACCCAUGUAUGUUAUUAUCAUGUGUUGCGUGC [Design 12] (Eterna round: R96, puzzle: Exclusion NG 1) |  | 30 |  |  |  | 
11 | CUGCUGGAGCUUUGCUUUAGUCGUACAUGAGGAUCACCCAUGUAGGAUAUGGUAGGCUUUGCUUACUAGAAGGAUAGAGUGGUC [salish99_ExNG3_r04_606] (Eterna round: R96, puzzle: Exclusion NG 3) | 226 | 66.6 | 62 |  |  | 
12 | CUGGACUGAGGAUAUUGUGCUGCUGACAUGAGGAUCACCCAUGUAUGUUAACUCGGCCGUCGAGAAGGCAGACAGG [BotMod 18 - Jieux - Exclusion 5] (Eterna round: R97, puzzle: Exclusion 5) | 16.5 |  | 19.1 |  |  | 
13 | CUGGUCCGAGGAUAUAUGAUGUGAUACAUGAGGAUCACCCAUGUUAUAUUAUGGAUGUAAAUAGAAGGCGGACUAG [Mat - Exclusion 5 - JL mod - D71] (puzzle: Exclusion 5) |  |  |  | 72.2 | 71.2 | 73.9
14 | CUGGUCCGAGGAUAUAUUAAGUGAAACAUGAGGAUCACCCAUGUAAUUUAAUGGAUGUAAAUAGAAGGCGGACUAG [Mat - Exclusion 5 - JL mod - D39] (puzzle: Exclusion 5) |  |  |  | 35.3 | 38.9 | 36.4
15 | CUGGUCCGAGGAUAUAUUAAGUGAUACAUGAGGAUCACCCAUGUUAUUUGAUGGAUGUAAAUAGAAGGCGGACUAG [JL-ex5-3.17] (puzzle: Exclusion 5) |  |  |  | 38.9 | 37.1 | 45.2
16 | CUGGUCCGAGGAUAUAUUAUGUGAUACAUGAGGAUCACCCAUGUUAUAUGAUGGAUGUAAAUAGAAGGCGGACUAG [JL-ex5-3.15] (puzzle: Exclusion 5) |  |  |  | 43.4 | 48 | 58.5

Row | Sequence | apparent KD of MS2 coat protein (input ligand: FMN 200 uM) [nM] | apparent KD of MS2 coat protein [1] [nM] | apparent KD of MS2 coat protein (input ligand: none) [nM] | apparent KD of MS2 coat protein [2] [nM] | apparent KD of MS2 coat protein [3] [nM] | apparent KD of MS2 coat protein [4] [nM]
17 | CUGGUGUGAGGAUAUCAGGACACGCCCGAGGGCGUGUCAAAUGAGAAGGCACAUGAGGAUCACCCAUGUGGGAC [Atisrage] (puzzle: Exclusion 4) |  |  |  | 39.8 |  | 
18 | CUGUAACGAGCGUGAGCCUACAUGAGGAUCACCCAUGUGCUCGUCUUAUAACGUACUGUCACGUUAGUGAUAGUGCG [Sensor v3, turn-off variant 1 (MOD of Eli's v1-13 v.3)] (puzzle: Sensor v3, turn-off variant 1) |  |  |  | 297 | 115 | 104
19 | CUGUAGUCAGGAUAUACAUGAGGAUCACCCAUGUAAAAUUUUAAUUUAAUUUGAAGGUGUAGAAGGGACCAGUC [Ex3 #26] (Eterna round: R97, puzzle: Exclusion 3) | 30.1 |  | 38.5 |  |  | 
20 | CUGUGCACGCUGCGGUCCUACAUGAGGAUCACCCAUGUGGUCUGGUGGCGUGGGUCGCCGGACUUGGCUCGUCUUGA [salish99_S_TOV1_R5_023] (Eterna round: R97, puzzle: Sensor, turn-off variant 1) | 19.1 |  | 19.2 |  |  | 
21 | CUGUUCCAUGUAGGAUAUGCAUAUUCUCAUUAUGCAGAAGGACAUGAGGAUCACCCAUGUAUGUUAUUAUCAUAUGUUACAUGU [Design 4] (Eterna round: R96, puzzle: Exclusion NG 1) |  | 27.2 |  |  |  | 
22 | CUGUUUUUCGCAGGAUAUGCUCCUCCAUUAUUUGCAGAAGGGCGUUAAACAUGAGGAUCACCCAUGUAUGGUAAUGACUAUUGC [JR_ExcNG1_Sub066] (Eterna round: R96, puzzle: Exclusion NG 1) | 27.4 | 12.6 | 19.6 |  |  | 
23 | CUGUUUUUCGCAGGAUAUGCUCCUCCAUUAUUUGCAGAAGGGCGUUGAACAUGAGGAUCACCCAUGUAUGGUAAUGACUAUUGC [JR_ExcNG1_Sub067] (Eterna round: R96, puzzle: Exclusion NG 1) | 23.5 | 14.7 | 22.4 |  |  | 
24 | CUUAAACAUGAGGAUCACCCAUGUCAGGAUAUGAUACUAUGUACUUCGGUACAUAGUAUCAGAAGGGAUAUGAA [Ex1-3: 64] (puzzle: Exclusion 1) |  |  |  | 43.1 |  | 
25 | CUUAAUUGUCACAUGGGUGACAUGAGGAUCACCCAUGUCACAAGCUUUUUGCUCGUCUUAUAAUUAACCCAUGUGAC [Stov1/12-A3] (Eterna round: R97, puzzle: Sensor, turn-off variant 1) | 13.7 |  | 13.3 |  |  | 
26 | CUUAAUUGUCAGAUGGGUGACAUGAGGAUCACCCAUGUCACAAGCUUUUUGCUCGUCUUAUAAUUAACCCAUCUGAC [Stov1/11-A4] (Eterna round: R97, puzzle: Sensor, turn-off variant 1) | 13.5 |  | 13.4 |  |  | 
27 | CUUAGACAUGAGGAUCACCCAUGUGAGGAUAUGAAAUUAAUUAAUUAUGAAGUAUGAAUCAGAAGGCACAUAUG [Mat - Mod of Hyphema D35] (puzzle: Exclusion 1) |  |  |  | 78.6 | 71.7 | 118
28 | CUUAGACAUGAGGAUCACCCAUGUGAGGAUAUGAUGCGAAUAAAGAAAGAAGAAAGCAUCAGAAGGCACAUAUG (Eterna round: R96, puzzle: Exclusion 1) | 382 | 94.1 | 125 |  |  | 
29 | CUUAGACAUGAGGAUCACCCAUGUGAGGAUAUGAUGCGAAUAAAGAAAGAAGAAAGCAUCAGAAGGCACAUAUG [Fiskers Ex 1 - 1] (puzzle: Exclusion 1) |  |  |  | 121 | 111 | 97.9
30 | CUUAGACAUGAGGAUCACCCAUGUGAGGAUAUGAUGCGAUCGUCGAAAGACGAUAGCAUCAGAAGGCACAUAUG [Fiskers Ex 1 - 6] (puzzle: Exclusion 1) |  |  |  | 132 |  | 
31 | CUUAGCCUAAAAUCACGCAAGCUUUUUGCUUGUCUUAAGACAUGAGGAUCACCCAUGUCCGGGCUGAACUUAUGGAA [Zarebe] (puzzle: Sensor v3, turn-off variant 2) |  |  |  | 20.4 | 17.5 | 17.1
